# In the nanobody polyreactivity screen of Harvey et al. (2022):
# Assay: yeast display, Sf9 membrane polyspecificity reagent, FACS + sequencing; frameworks hold sequencing errors
# Procedure, shortened: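 Genes from sorted yeast were amplified by colony PCR, read by MiSeq 2 × 250 sequencing and filtered on CDR length. These cells carried a synthetic nanobody library in Saccharomyces cerevisiae BJ5465 and were sorted by FACS into low and high (top ~1%) gates on anti-HA and streptavidin fluorescence. Polyreactivity is labelled according to the gate of origin.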
row,Sequence,polyreactivity (PSR sort gate)
1,QVQLVESGGGLVQAGGSLRLSCAASGSIFYYNAMGWYRQAPGQERELVAGINYSGGSTYYADSVKGRFTISRDNAKNTVYLQMNSLIPEDTADYYCAARPRYLNARKYYYWGLGTQVTVSS,high polyreactivity
2,QVQLVESGGGLVQAGGSLRLSCAASGFTFVFYAIGWYRQAPGKARELVAAISSRGGSTYYADSVKGRFTISRDNAKNTVYLQMNSLKPEDTAVYYCNVVSPYWTTYEEYYWGQGTQVTVSS,high polyreactivity
3,QVQLVESGGGLVQAGGSLRLICDASGRILTGNAMGWYRQAPGKERELVAAISYNGGRTYYADSVKGRFTISRDNAKNTVYLQMNSLKPEDTAVYYCNVVRRQLQTSHPYGYWGQGTQVTVSS,low polyreactivity
4,QLKLVESGGGLVQAGASLRLSCAASGSIFYGYTMGWYRQAPGKERELVAGISTYYADSVKGRFTISRDNAKNTVYLQMNSLKPEDTEVYYCAADYSSTTSEYDYWGQGTQVTVSS,low polyreactivity
5,QVQLVESGGGLFQAGVSLRLSCAASGSTIGVNAMGWSRKAPGKERELVAAISRGGGRTYYADSVKWRFTISRDIAKKTVYLQMICLKPEDTAVYYCNTDFGARMGYWGQGTEVTVSS,high polyreactivity
6,QVQLVESGGGLVQAGGSLRLSCAASGRIIYGYAMGWYRQAPGKERELVAAISASGGRTYYADSVKGRFTISRDHAKNTVYLQMNSLKPEDTAVYYCAADDVGPPDFYYWGQGTQVTVSS,high polyreactivity
7,QVQLVESVGRLVQAGGSLRLSCDASGSIFYYAMGWYRQAPGKERELVAAITWRGGRTYYADSVKGRFTITRDNEKNTVYLQLNSLKPEDTAVYNCNAVAPCKYNHWGQGTQVTVSS,high polyreactivity
8,QVQLVESGGGLVQAGGSLRLSCAASGRTFSKYAMGWYRQAPGKERELVAAIRWSGGSTYYADSVKGRFTISRDNAKNTVYLQMNSLKPEDTAVYYCAKRSRGLKFDYWGQGTQVTVSS,high polyreactivity
9,QVQLVESGGGLVQAGGSLRLSCAASGRIFSSYAKGWYRQAPGKERELVAAISRGGGRTYYADSVKGRFTISRDNAKNTVYLQMNSLKPEDTAVYYCATVGRSAAYAFDYWGQGTQVTVSS,high polyreactivity
10,QVQLVESGGGLVQAGGSLRLSCAASGFIFKQNARGWYRQAPGKERELVAAISWTGGSTYYADSVQGRFTISRDNAKNTVYLQMNSLKPEDTAVFYCAARKYKSTGDRRGTMDYWGQGTQVTVSS,high polyreactivity
11,QVQLVESGGGLVQAGGSLRLTCAASGFIFYKYAMGWYRQAPGKERELVAAISRGGGSTYYADSVKGRFTISRDNAKNTVYLQMNSLKPEETAVYYCAAQAFIVRPSYVPRHNYWGQGTQVTVSS,high polyreactivity
12,WLLLMGWYRQPPGEERELVAGINDGASTNDADSVKGRFTISRDNARNTVYLKMNSLKPGDTAVYYCAGWQPVLIWFYYWGQGTQVTVSS,high polyreactivity
13,QVQLVESGGGLVQAGGSLRLSCAASGITFDRYAMGWYRQAPGKERELVAAITSGGRTYYADSVKGRFTISRDNAKNTVYLQMNSLKPEDTAVYYCNATRGQYVGRYYYWGQGTQVTVSS,high polyreactivity
14,QVQLVESGGGLVQAGGSLRLSCAASGRTFTRYTMGWYRQAPGKERELVAAITRGGSTYADSVKGRFTISRDNAKNTVYLQMNSMKPEDTAVYYCAAYWGFYPWRAYPYDYWGQGTQVTVSS,high polyreactivity
15,QDQLVESWGGLVQAGCSLRLTCAASGSTFWWYAMGWNRQAPGKQREFDAPINWSGSRTYYADSVKGRFTISRDNAKNTVYLQINSLNPEDTAVYYCAAVGRWGVTGSHHDAYDYWGQGTQVTVSS,high polyreactivity
16,QVQLVESGGGLVQAGGSLRLSSAASGYTFSRNAMGWYRQAPGKERELVASISSRGGSTRYADSVKGRFTISRDNAKYTVYLQMNSLKPEDTAVYYCAVRGLYSPFTYGYWGQGTQVTVSS,high polyreactivity
17,QVQLVESGGGLVQAGGSLRLSCAASGIIFRTNAMGWYRQAPGKERDFVAAISAGGTRTYYADSVKGRFTISRDNAKNTVYLQMNSLKPEDTAVYYCAARYPEYETEDDYWGQGTQVTVSS,high polyreactivity
18,QVQLVESGGGLVQAGGSLRLSCAASGFTFYYYAMGWYRQATGKVRELVAAISARGGSTYYADSVKGRFTISRDNAKNTVYLQMNSLKPEDTAVYYCNAVTGHTSYEYDYWGQGTQVTVSS,high polyreactivity
19,QVQLVESGGGLFQAGGTHRLSCAASGFISKYYAMGWYRQAPGKERELVSSISRDGSTSYADSVKGRFTISRDNAKNTVYLQMNSLKAEDSAVYYCAAPSYRTRYYYWGQGTQVTVSS,high polyreactivity
20,QVQLVESRGGLVQAGGSLRLSCAASGSNFYAYAMGWYRQAPGKERELVAAISWSTSSTYADSVKGRFTISRDNAKNTVYLQMNSLKPEDTAVYYCAASPYKGTGAEFDYWGQGTQVTVSS,low polyreactivity
21,QVQLVESGGGLVQAGGSLRLSCAASGSTLYKYAMVWYRQAPGKEREFVAAITRSGGSTYYADSVKGRFTISRDNAKNTVDLQMNSLKPEDTAVYYCAARVRVYSGWLYNYWGQGTQVTVSS,high polyreactivity
22,QVQLVESGGALVQAGGSLRLSCAASGRTFNYNAMGWYRQAPGKERELVAAITSGASTNYADSVKGRFTISRDNAKNTVYLQMNSLKPEDTAVYYCNAEGYVYYLQEDYWGQGTQVNVSS,low polyreactivity

row,Sequence,polyreactivity (PSR sort gate)
1,QVQLVESGGGLVQAGGSLRLSCAASGFTFRDYVMGWYRQAPGKERELVAAISRSGASTYYADSVKGRFTISRDNAKNTVYLQMNSLKPEDTAVYYCAKTQAGYSPGTYYYWGQGTQVTVSS,high polyreactivity
2,QVQLVESGGGLVQAGGSLRLSCAASGRIFPYYAMGWYRQAPGKERELVAAINRGGSTNYADSVKGRFTISRDNAKNTVYLQMNSLKPEDTAVYYCAALSRTHGVSYDYWGQGTQVTVSS,high polyreactivity
3,QVQLVESGGGLVQAGGSLRLSCAASGSTLQNNAMGRYRQAPGKERELVAAISVSDGITYYADSVKGRFTISRDNAKNTVYLQMNSLKPEDTAVYSFAADYSSPWQAVQGDDYWGQGTQVTVSS,low polyreactivity
4,QVQLVESGGRLVQAGGSLRLSCAASGSTIYPNAMGWSRQAPGKERELVAAISRGTRTKYADSVKGRFTISRDNAKNTVYVQMNSLKPEDTAVYYCAADTGTGLDWGQGTQGTVSS,high polyreactivity
5,QVQLVESGGGLVQAGGSLRLSCASSGIILYAYAKGWYRQAPGKERELVAAISRSGGRTYYADSVKGRFTISRDKAKNTVYLQMNSLKPEDTAVYYCATVTRYPDGHRFDYWGQGTQVTVSS,high polyreactivity
6,QVQLVESGGGLVQAGGSLRLRCAASGSTFSTNAMGWYSQAPGKERELVASITRSGGSTYYADSVKGRFTISRDNAKNTFYLQMTSLKPEDTAVYYCNADGYYDYDYGFWGQGTQVTVSS,low polyreactivity
7,QVQLVESGGGLVQAGGSLRLSCAASGLIFYRYVMGWYRQAPGKERELVASISTSGGRTYYADSVKGRFTISRDNAKNTVYLQMNSLKPEDTAVYYFAADFESYSRYYDGYDYWGQGTQVTVSS,high polyreactivity
8,QVQLVESGGGLVQAGGSLRLSCAASGITFVFYAMGWYRQAPGKERELVATITWRTTRTFYADSVKRRFTISRDNAKNTVYLQMNSLKPEDTAVYYCAAGVNSTTRINDYWGQGTQVTVSS,low polyreactivity
9,QVQLVESGGGLVQAGGSLRLSCAASGSIFLYYAMGWYRQAPGKERELVAAITGGGGTNYADSVKGRFTISRDNAKNTVYLQMNSLKPEDTAVYYCAADPSGQFPYSYYNYDYDYWGQGTQVTVSS,low polyreactivity
10,QVQLVESGGGLVQAGGSLRLSCAASGRTFAWYAMGWYRQAPGKERELVAAISSGGSTYYADSVKGRFTISRDNAKNTVYLQMNSLKPEDTAVYYCAAEWHYIYAYDSWGQGTQVTVSS,low polyreactivity
11,QVQLVESGGGLVQAGGSLRLSCAASGRIFTRYAMGWYRQAPWKERELVAVITRSGGSTYYADSVKGRFTISRDNAKNTVYFKMNSLIPEDTAVYYCAVRPYELHRLADQPGGDDYWGQGTQVTVSS,low polyreactivity
12,QGQLVVSGGGLVQAGGSLRLSCAASGSILTRNAMGWYRQAPGKEMELVAAITGSGGRTYYADSVKGRFTISRDNAKKTFYLQMKSLKPEDTAVYYCATRYGREDYWGQGTQVNVSS,high polyreactivity
13,QVQLVESGGGLVQAGGSLRLSCAASGSTFLYNAMRWYRQAPGKEREFVAAISGSGGTTYYADSVKGRFTISRDNAKNTFYLQMNSLKPEDTAVYYCAVSQSWYWYYASDYWGQGTQVTVSS,low polyreactivity
14,QVQLVESGGGLVQAGGSLRLSCAASGSTFTQYAMGWYRQAPAKERELFAAISWGGGTTRYADSVKGRFTISRDNAKNTVYLQMNSLKPEDTAVYYCAKRVRTGSVGNFNYWGQGTQVTVSS,high polyreactivity
15,QVQLVESGGGLVQAGGSLRLSCAASGGTFSSNAMGWYRQAPGKERELVAAITWSGGSTYYADSVKGRFTISRDNAKNTVYLQMNSLKPEDTAVYYCNARNQWRTVGKYDYWGQGTQVTVSS,low polyreactivity
16,QVQLVESGGGLVQAGGILRLSCAASGLIFITYAMGWYRQAPGKERELVATITLRGGSTYYADSVKGRFTISRDNAKNTVYLQMNSLKPEDTAVYYCAADVGYWGRSRGYPSDDYDYWGQGTQVTVSS,low polyreactivity
17,QVQLVESGGGLVQAGGSLRLSCAASGSIFAAYTMGWYRQAPGKERVFVAAITYTGGSTYYADSVKGRFTISRDNAKNTVYLQMNSLKPEDTAVYYCAARGRLCQGYYYWGQGTQVTVSS,low polyreactivity
18,QVQLVESGGGLVQAGGSLRLSCAASGRIFRYNAMGWYRQAPGKERELVAAITWRGGSTYYADSVKGRFTISRDNAKNTVYLQMNSLKPEDTAVYYCNKVYSLTFEYDYWGQGTQVTVSS,high polyreactivity
19,QVQLVESGGGLVQAGGSLRLICAATGSTFVYNAMGWYRQAPGKEREFVAVINWSGGRTYADSVKGRFTISRDNAKNTVYLQMNSLKPEDTAVYYCNGERRTYRVALQYRRYDYWGQGTQVTVSS,high polyreactivity
20,QVQLVESGGGLVHAGGSLRLSCAASGRIFAPYAMGWYRQAPGKERELVAAITSRGGSTYYADSVKGRFTISRDTAKNTVYLQMNSLKPEDTAVYYCNADYYGRPYYYWGQGTQVTVSS,high polyreactivity
21,QVQLVESGGGLVQAGGSLRLSCAASGFTFRANGMGWSRQAPGKERELVAVITSGGTTNYADSVKGRFTISRDNAKNTVYLQMNSLKPEDTAVYYCAVPYEPTSIPERRDYYRADDYWGQGTQVTVSS,low polyreactivity
